Reference: patent US7981423B2, “Rage fusion proteins” (Transtech Pharma, Inc., priority 2004, dated 2011)

How the values were obtained:
male C57BL/6 mice = assay: Animal model of stroke (carotid/cerebral artery occlusion and reperfusion); format: in vivo, mouse; conditions: treated just prior to reperfusion
Method: For example, the RAGE fusion proteins of the present invention may also be used to treat stroke. […] In this model, the […] of a mouse is ligated and then reperfased to form an infart. To assess the efficacy of RAGE fusion proteins to treat or prevent stroke, mice were treated with sRAGE or TTP-4000 or control immunoglobulin just prior to reperfusion.
TTP-4000 was also compared to sRAGE in a disease relevant animal model of stroke. In this model, the […] of a mouse was ligated for 1 hour followed by 23 hours of reperfusion at which point the mice were sacrificed and the area of the infarct in the brain was assessed. […] After the nylon suture had been in place for 1 hour, the animal was re-anesthetized, rectal temperature was recorded and the suture was removed and the incision closed.
Infarct volume was determined by anesthetizing the animals with an intraperitoneal injection of sodium pentobarbital (50 mg/kg) and then removing the brains. […] The infarct area in each section was determined with a computer-assisted image analysis system, consisting of a Power Macintosh computer equipped with a Quick Capture frame grabber card, Hitachi CCD camera mounted on a camera stand. […] The images were captured and the total area of infarct was determined over the sections. […] Summing the infarct volumes of the sections calculated the total infarct volume. […]

Fc receptor = Fc receptor activation, TNF-α secretion from THP-1 cells; format: cell-based; conditions: FIG. 12
Text: Fc stimulation results in TNF-α secretion.

amphoterin (Ampho) = biological target: T1, amphoterin (Ampho) (Homo sapiens, UniProt P09429); assay: In vitro ligand binding ELISA, immobilized amphoterin; conditions: various dilutions of fusion protein; FIG. 7
T1 sequence (P09429 1-215): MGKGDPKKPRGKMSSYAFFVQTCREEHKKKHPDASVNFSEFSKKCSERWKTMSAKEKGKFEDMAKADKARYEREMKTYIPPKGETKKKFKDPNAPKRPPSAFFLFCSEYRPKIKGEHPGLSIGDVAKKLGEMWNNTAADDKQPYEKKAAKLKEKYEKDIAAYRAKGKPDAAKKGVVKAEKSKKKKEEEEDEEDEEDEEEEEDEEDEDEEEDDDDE
Method: For example, the RAGE fusion protein may be used in a binding assay to identify potential RAGE ligands. In one example embodiment of such a binding assay, a known RAGE ligand may coated onto a solid substrate (e.g., Maxisorb plates) at a concentration of about 5 micrograms per well, where each well contains a total volume of about 100 microliters (μL). The plates may be incubated at 4° C. overnight to allow the ligand to absorb. Alternatively, shorter incubation periods at higher temperature (e.g., room temperature) may be used. […] The fusion protein bound to the immobilized ligand may be detected in a variety of ways. […] The bound complex may be detected by adding the alkaline phosphatase substrate, para-nitrophenylphosphate (PNPP), and measuring conversion of PNPP to para-nitrophenol (PNP) as an increase in absorbance at 405 nm. […] Binding was detected by the addition of an immunodetection complex containing a monoclonal mouse anti-human IgG1 diluted 1:11,000 to a final assay concentration (FAC) of 21 ng/100 μL, a biotinylated goat anti-mouse IgG diluted 1:500, to a FAC of […], and an avidin-linked alkaline phosphatase. […] Binding of the complex to the immobilized fusion protein was quantified by measuring conversion of PNPP to para-nitrophenol (PNP) which was-measured spectrophotornetrically at 405 nm. […]

B1: TTP-4000: four domain RAGE fusion protein (SEQ ID NO: 32): human RAGE amino acids 1-251 linked to CH2 and CH3 domains of human IgG (protein)
chain: MAAGTAVGAWALVLSLWGAVVGAQNITARIGEPLVLKCKGAPKKPPQRLEWKLNTGRTEAWKVLSPQGGGPWDSVARVLPNGSLFLPAVGIQDEGIFRCQAMNRNGKETKSNYRVRVYQIPGKPEIVDSASELTAGVPNKVGTCVSEGSYPAGTLSWHLDGKPLVPNEKGVSVKEQTRRHPETGLFTLQSELMVTPARGGDPRPTFSCSFSPGLPRHRALRTAPIQPRVWEPVPLEEVQLVVEPEGGAVAPPSVFLFPPKPKDTLMISRTPEVTCVVVDVSHEDPEVKFNWYVDGVEVHNAKTKPREEQYNSTYRVVSVLTVLHQDWLNGKEYKCKVSNKALPAPIEKTISKAKGQPREPQVYTLPPSRDELTKNQVSLTCLVKGFYPSDIAVEWESNGQPENNYKTTPPVLDSDGSFFLYSKLTVDKSRWQQGNVFSCSVMHEALHNHYTQKSLSLSPGK
Male C57BL/6 mice
  reduction in infarct volume compared to sRAGE (in words): significantly greater reduction in infarct volume
Fc receptor; conditions where human IgG stimulation of TNF-α release is detected
  stimulation of TNF-α release from cells (in words): does not stimulate TNF-α release
Fc receptor; well precoated with 10 μg/well heat aggregated protein, THP-1 cells, 24 hours
  TNF generated: less than 2 ng/well
Amphoterin (Ampho)
  binding to immobilized amphoterin (absorbance at 405 nm): specifically interact
